# Source: the RNAGym collection of RNA variant scans (doi:10.1073/pnas.2313332121)
# B1: TPR t1 (parent)
# chain: GACCAAUCUGCCCUCAGAGCUCGAGAACAUCUUCGGAUGCAGAGGAGGCAGGCUUCGGUGGCGCGAUAGCGCCAACGUCCUCAACCUCCAAUGCAUCCCACCACAUGAUGAUGCCUGAAGAGCCUUGGUUUUUUG
# Variants of: B1
# Assay: polymerase ribozyme fitness, log enrichment relative to wild type (log ratio); higher = more active; in vitro selection for triplet polymerase activity
# Outline: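 Mutant libraries of each subunit of a heterodimeric triplet polymerase ribozyme were built by PCR and transcribed. Each library went through one round of in vitro selection in triplicate: annealing with biotinylated primer, partner subunit and triplets, frozen incubation at −7 °C, gel excision of extended constructs, streptavidin-bead capture and RT-PCR. Input and output libraries were Illumina-sequenced; only genotypes with ≥10 input reads and ≥1 read per output were kept. Fitness is log2(genotype enrichment/wild-type enrichment), using inverse-variance-weighted replicate averages.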
row,Variant,polymerase ribozyme fitness (log ratio)
1,A5G C12U G39U,-0.29
2,C13G G47U C73U C114A,-4.1
3,A24G G120A,-0.603
4,C15G C49G G71U A74U U106C C124U,-5.29
5,G57A G93U,-1.69
6,G44A G69C C89U A118U C124G G127C,-0.292
7,C15A G57U A91G C123A,-3.21
8,G36A A83C,-1.41
9,C13G C49A C72U C88A,-2.56
10,A18C C101A,-3.03
11,A29G U81C A100U,-3.08
12,A84G G117U G135U,-4.65
13,G52A G57A G113A,-0.88
14,A37G A46U C56A G120A,-1.7
15,G36U G48U U132A G135C,-1.44
16,U7A C49U G71U,-0.851
17,G47U C49G C88A A95C C123A,-3.47
18,U78A A118G,-0.761
19,G19A A74C,-3.23
20,G60A G71U,-4.5
21,C70U C123U,0.707

row,Variant,polymerase ribozyme fitness (log ratio)
1,C76A C79G C123G,0.511
2,A74G A75U U106G,-1.96
3,G36U C123G,0.712
4,A29G U109G C114G,-6.5
5,A24G A90G,-1.65
6,U54A G63U C99U G117U,-5.72
7,A16C C70U C85G,-3.97
8,C56A G71U U81G A111C A119G G135A,-4.66
9,U54C G61A U81A U96A,-1.36
10,C72A C114A,-1.85
11,G113U G117A,-5.13
12,C13G C40A A84U U106A,-3.53
13,A50G C53G G60U C72U C101A G117A,-4.06
14,C15A G63U A68G A111G,-7.51
15,C82G G107A,-6.96
16,C34U G63U G69A A84G,-6.86
17,G44U G57A C94G,-3.86
18,G63A A95C,-2.22
19,C11G C115A,0.0312
20,U7A G63U C80A,-4.19
21,C8G C11U C40U G61C A90G C97U U129G,-3.08

row,Variant,polymerase ribozyme fitness (log ratio)
1,U9G G47A,-1.81
2,G48C C62U A75G,-1.21
3,G58C U81A C123A,-0.0338
4,C56G G71A C82A C115A,-3.76
5,U9A G77U U131A,0.362
6,C20A C79U,-2.47
7,G61U U132A,0.196
8,U81C C88U,0.221
9,C70U U125G G127A,-1.83
10,C80U C82U U96A,-1.82
11,C11G U78C C114A G120C,-0.166
12,G25C G71A C73A C89A G110A,-6.79
13,C79G C101A,-3.09
14,C62G C86A C99U C101U A121G G122U,-5.18
15,G45U C88U,-0.272
16,G57U C88A A95U A121U C124U,-1.04
17,C3U G45A G71A C79U,-1.81
18,C11G U54A G93C,-0.558
19,C115G G135U,-2.97
20,G19A U87G U109G,-4.8
21,U38G A95C,0.185

row,Variant,polymerase ribozyme fitness (log ratio)
1,A41U A46U G63U,-3.33
2,G48U G71A,-1.06
3,C34A A43U G61A C88U A119G A121C,-4.91
4,G36U G44A G47A G48U C82G A121C,-0.473
5,C13U C97U,-1.03
6,C13A G52U C70U,-2.88
7,U9A G52A G65C U126C,-5.92
8,G39A A84C,-1.2
9,U54A C62U U96G,-0.523
10,C53A G60U U106A U109G G113U,-5.78
11,C80U C123A U129C,-1.18
12,G61A C94A,-0.27
13,G71A C82G,-2.5
14,G71A C82U,-0.155
15,C85U C86G A118C,-3.84
16,G63C A111G U125C,-1.75
17,U9A U78A G93C C124G G128C,-2.15
18,G63U C86U U112A,-0.646
19,A5G C13U G44U U96G U133A,-2.01
20,C34A G44C G60U A121G,-2.34
